From publication PMC7840992

Target: luminGAVPO (luminescent GAVPO), Nluc-GAVPO fusion with NG configuration

induction ratio of a Gluc reporter driven by Gal4 binding sites, HEK293 cells, furimazine alone 0-25 uM, maximum at 2.5 uM: 116 fold
Substance: luminGAVPO (luminescent GAVPO), Nluc-GAVPO fusion with NG configuration
